Measurements published in paper PMC10229695.

Experiments:
[1] = tested on: NLRP3 L266F (NOMID, C790T) (human); test: competition pulldown (streptavidin beads, western blot); conditions: elution from biotinylated mtDNA beads; oxidized guanine (8-oxoguanine); EMSA and pulldown: 50 mM Tris pH 7.4, 100 mM NaCl, 2 mM MgCl2, 12% glycerol, 4 C overnight (EMSA plus 2e-5 mg/ml salmon sperm DNA, 1e-5 uM ox-mtDNA); Fig …
[2] = tested on: NLRP3 WT (human); test: as above; conditions: elution from biotinylated mtDNA beads, EMSA and pulldown: 50 mM Tris pH 7.4, 100 mM NaCl, 2 mM MgCl2, 12% glycerol, 4 C overnight (EMSA plus 2e-5 mg/ml salmon sperm DNA, 1e-5 uM ox-mtDNA), Fig …

Substance	IC50 [1] [nM]	IC50 ([2]; poor fit, R2 0.6, text prints 247 nM, oxidized guanine (8-oxoguanine)) [nM]	IC50 ([2]; R2 0.98, abstract prints 4 nM) [nM]
ox-mtDNA competitor (unlabeled)	8.1	247	
non-oxidized mtDNA competitor (unlabeled)			4.8
